In the supplement of paper PMC9732359:
± gives the uncertainty stated by the source.

Assay: protein stability index of a GFP-peptide fusion (yeast GPS) (PSI 1-4); higher = more stable; sorted into four equal gates, so the index is relative within each strain
Settings: doa10∆
Summary of the method: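 Mid-log yeast cultures in leucine-free medium, carrying a pooled plasmid library, were sorted into four equal gates by their GFP/Cherry fluorescence ratio. Each plasmid expressed Cherry along with GFP fused upstream of a tiled 17-residue yeast protein peptide. Plasmids recovered from each gate were PCR-amplified and Illumina-sequenced, with reads assigned to strains by barcodes. The protein stability index was obtained by summing each gate's read frequency weighted by its gate number.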

Sequence	protein stability index
SVKSARTSTRGRGRGRG [SNF2]	3.38 ± 0.065

Same assay, conditions: pdr5∆

Sequence	protein stability index
SLKQYAGNLITTPEINN [SRP68]	2.88 ± 0.061
SLLKTKLKQQSSTDIPS [RRI1]	2.4 ± 0.054
SLLLAHFFSKSCSFFAK [NUT1]	1.62 ± 0.043
SLLNLLNISPFTFGLTV [RPP0]	1.91 ± 0.049
SLLPYYHLTKAVKLGDL [RPN3]	1.74 ± 0.052
SLNEVGTLKVILNLYSS [YML103C/NUP188]	2.11 ± 0.29
SLNYKFTTNKSKDVSRL [SRP21]	3.04 ± 0.088
SLPFLLRHMPLASIPDI [SSN2]	1.69 ± 0.055
SLPSKLTKYKEMERIVK [SRP68]	2.55 ± 0.064
SLQDNSAAINNEDARAI [RPN4]	3.19 ± 0.057
SLRETNTTDPLGHTKAA [SIR2]	2.7 ± 0.15
SLSEGCDILVATPGRLI [PRP28]	3.23 ± 0.084
SLSYMAFPNASKKNRPT [RRP40]	2.89 ± 0.15
SLTEATKTNVDNNSKAE [YLR335W/NUP2]	3.35 ± 0.064
SLTKDKSIRKDTVEEKK [SIR4]	3.23 ± 0.062
SLVIIILVKRYSIEMKP [ECM29]	1.38 ± 0.04
SMDTKKKHKQKKVLEID [BRN1]	3.32 ± 0.057
SMFGSDQKTGRAKSSSH [RPN4]	3.25 ± 0.11
SMGTMICGYTRKEGPTI [PRE2]	3.21 ± 0.077
SMPLEQLIPIILRQRGP [SRB4]	2.31 ± 0.058
SNAAGADDAISMHLLKD [SRB8]	2.49 ± 0.065
SNAVTQTNIWEENWDDV [SEM1]	3.46 ± 0.12
SNDLCSQIFDQLKDMQT [SRB8]	2.67 ± 0.042
SNDNLDLISEILKWVQW [MED1]	2.92 ± 0.058
SNEICDLAYQYVRALEL [SRB2]	2.77 ± 0.037
SNEIKVTNDLDTSAEKD [SIR4]	3.35 ± 0.062

Sequence	protein stability index
SNHNNLNLNNSELQPQN [SNF2]	2.7 ± 0.062
SNIDYQTLLANSDHAKF [SNF2]	2.28 ± 0.093
SNIEQTESLRVENSVLI [YIL149C/MLP2]	3.09 ± 0.14
SNIIHDESDTISFRSNL [SNF6]	2.68 ± 0.079
SNKPIFLFAPELGAINL [SWI1]	1.91 ± 0.051
SNPQHIIQPFLDNSKMD [RGR1]	2.98 ± 0.075
SNPSGNYTGWKAISVGA [PRE9]	2.5 ± 0.061
SNSAGTSLFGSSSAQQT [YJL041W/NSP1]	3.08 ± 0.079
SNSSELEPDYQAPFSTS [MED1]	2.97 ± 0.057
SNTRTMTYKNKLTVCFD [MED2]	2.53 ± 0.11
SPDQMRNLQMGLRNQNM [GRR1]	3.52 ± 0.16
SPEEQRSLLQEAIETCK [GAL11]	2.97 ± 0.13
SPFGGSSHAKGIVLEKL [RPS23A]	3.14 ± 0.074
SPIPFPPLTYKNDTKIL [PRP8]	2.56 ± 0.045
SPKPYAVKYGLNHVVAL [RPL8A]	2.42 ± 0.06
SPLDIYSDEASAQKKRF [RPS2]	2.86 ± 0.082
SPVELSRMFEEVSGSIQ [SMC1]	2.16 ± 0.052
SPVQIAFNRFMAESLVD [SSN8]	1.97 ± 0.045
SQDATKVDATPEESKPI [YLR335W/NUP2]	3.17 ± 0.089
SQIRLYAKFKRNTMMIQ [RGR1]	2.37 ± 0.11
SQKQTLIKKPLTVFYAI [SSN3]	2.13 ± 0.061
SQPKIGYGSNKKTKFLS [RPL32]	1.52 ± 0.16
SQPTAAGGPDMTTPQNI [DSN1]	1.9 ± 0.063
SQSKMMSSQISSLIPHC [MTR3]	2.09 ± 0.039
SQSLGVSNKFEKIFHYG [PUP3]	3.5 ± 0.17
SQTPSFNTNSSFTPSTV [YOR098C/NUP1]	2.671 ± 0.025

Sequence	protein stability index
SQVVWIRRLRVLRRLLA [RPL19A]	1.46 ± 0.049
SRAQILQIHSRKMTTDD [RPT5]	2.43 ± 0.055
SRDELIRLAKTLKKNNV [RPN10]	1.81 ± 0.091
SRDLWCFSINDDPVPTP [SSN2]	2.21 ± 0.088
SRENNSEYMVFGKLAFP [YJL039C/NUP192]	2.54 ± 0.072
SREVLRYEEFADKVKLG [RPC40]	3.26 ± 0.19
SRFTNVSVIAPESQGQH [YMR153W/NUP53]	3.39 ± 0.087
SRKRGGENVFLKRISDG [SIR3]	3.29 ± 0.072
SRLTLLLRALKTNEESA [PRP8]	1.58 ± 0.058
SRMFEEVSGSIQYKKEY [SMC1]	2.02 ± 0.06
SRNFSTRDEETTKLAFL [SIR4]	3.09 ± 0.055
SRRPEPKKFGGKGARSR [RPS16A]	3.25 ± 0.095
SRRTVNKEMETQRIMTN [YLR018C/POM34]	3.15 ± 0.29
SRVINVVRAASSLASQD [RRP6]	2.47 ± 0.074
SSDVDMDDEEWRSKRIE [RPC53]	3.17 ± 0.1
SSEQDYSTLKELLEYSD [YCG1]	2.75 ± 0.088
SSETDDDHSQVINPQQL [DSN1]	3.13 ± 0.05
SSFGSESLTFNEFQLQW [SWI1]	2.84 ± 0.056
SSFNKRSKFLSTVAKFL [IRR1]	2.28 ± 0.054
SSGFNEDIVGALRRRVG [REC8]	1.16 ± 0.055
SSHQRVFKLSTNLISKI [SWP82]	1.97 ± 0.057
SSLEARYFFYLSKINAI [RPN3]	2.17 ± 0.064
SSLSAIIVFGYPESISN [YDL088C/ASM4]	1.88 ± 0.046
SSLYEASLNALKESIKN [RPN1]	3.1 ± 0.1
SSNTNNNTNNNNTNTGA [SWI1]	3.29 ± 0.069
SSPDTMKLTDLLSLINS [SNF12]	2.73 ± 0.039

Sequence	protein stability index
SSPEEPFMSYSPQLTAI [SNF12]	2.79 ± 0.063
SSSMDMQANTNALRRNL [SSN3]	2.33 ± 0.05
SSTGVPESIDTILSSKL [SRB2]	2.92 ± 0.13
SSTKDYLTPPHECRLRD [RET1]	3.22 ± 0.14
SSTYYNLDYLFELIELV [NUT1]	2.62 ± 0.17
SSVFLPSRKDCMEVASA [BRR2]	3.4 ± 0.077
SSVKTCFKPMSLTSKRL [RIP1]	3.04 ± 0.063
SSYDLLFNESFIMASVG [SRP72]	2.88 ± 0.15
STDELVGSPLTVSILQE [POP8]	2.62 ± 0.11
STDKLVQCHGSFATATC [SIR2]	2.67 ± 0.048
STFENRNVGKTLVNKST [RPS1A]	2.74 ± 0.059
STFREWKNLVLKLSQAF [YJR042W/NUP85]	2.37 ± 0.096
STLEPTLRKELEQIQVQ [YIL149C/MLP2]	3.01 ± 0.088
STLGDCLGIKDEEMLTS [GAL11]	3.11 ± 0.13
STMKENKDLSELVIRLE [YIL149C/MLP2]	3.1 ± 0.082
STNESNKSISDEITEDM [SSN2]	2.75 ± 0.057
STNGLGMCQLYFWHKIW [SNU114]	1.24 ± 0.24
STPYLEILVEESGLRPV [PCI8]	1.55 ± 0.091
STSYAIKKKDELERVAK [RPS5]	3.52 ± 0.11
STTMDGANDLGFTASVS [MED1]	3.1 ± 0.061
STTTSVNGSTTAGVGST [SIN4]	2.99 ± 0.048
STVSGELNDNPAWFNNP [YMR153W/NUP53]	3.47 ± 0.056
STYRLEDVLSSFYRVEK [SSN2]	2.34 ± 0.073
SVAPTKQREIVKAFLSI [NUT1]	1.94 ± 0.073
SVDLEKLAFGLTKLNED [TAF14]	3.45 ± 0.17
